Measurements reported in patent US20200249231.

Tests used:
[1] = target: T1, YRYRQ (5-mer on peptide array)
T1 chain: YRYRQ

[2] = target: T2, WQRQR (5-mer on peptide array)
T2 chain: WQRQR

[3] = target: T3, LRYRQ (5-mer on peptide array)
T3 chain: LRYRQ

[4] = target: T4, EYVAQ (5-mer on peptide array)
T4 chain: EYVAQ

[5] = target: T5, YRQTR (5-mer on peptide array)
T5 chain: YRQTR

[6] = target: T6, DYFLQ (5-mer on peptide array)
T6 chain: DYFLQ

[7] = target: T7, DYALQ (5-mer on peptide array)
T7 chain: DYALQ

[8] = target: T8, VRYRQ (5-mer on peptide array)
T8 chain: VRYRQ

[9] = target: T9, EWALQ (5-mer on peptide array)
T9 chain: EWALQ

[10] = target: T10, RYTQR (5-mer on peptide array)
T10 chain: RYTQR

[11] = target: T11, RYSQR (5-mer on peptide array)
T11 chain: RYSQR

[12] = target: T12, DWALQ (5-mer on peptide array)
T12 chain: DWALQ

[13] = target: T13, YRQRA (5-mer on peptide array)
T13 chain: YRQRA

Z-[GGGYRYRQGGGG] = target: T14, Z-[GGGYRYRQGGGG]
T14 chain: GGGYRYRQGGGG

[14] = target: T15, QRQTR (5-mer on peptide array)
T15 chain: QRQTR

[15] = target: T16, EWVAQ (5-mer on peptide array)
T16 chain: EWVAQ

[16] = target: T17, RQRQR (5-mer on peptide array)
T17 chain: RQRQR

[17] = target: T18, EYVLQ (5-mer on peptide array)
T18 chain: EYVLQ

[18] = target: T19, QYRQR (5-mer on peptide array)
T19 chain: QYRQR

[19] = target: T20, QRQRQ (5-mer on peptide array)
T20 chain: QRQRQ

[20] = target: T21, VRQRQ (5-mer on peptide array)
T21 chain: VRQRQ

[21] = target: T22, EWIAQ (5-mer on peptide array)
T22 chain: EWIAQ

[22] = target: T23, YKYRQ (5-mer on peptide array)
T23 chain: YKYRQ

[23] = target: T24, PRYRQ (5-mer on peptide array)
T24 chain: PRYRQ

[24] = target: T25, DYWLQ (5-mer on peptide array)
T25 chain: DYWLQ

[25] = target: T26, DYVAQ (5-mer on peptide array)
T26 chain: DYVAQ

[26] = target: T27, WYALQ (5-mer on peptide array)
T27 chain: WYALQ

[27] = target: T28, EYALQ (5-mer on peptide array)
T28 chain: EYALQ

Z-[GGGDYALQGGGG] = target: T29, Z-[GGGDYALQGGGG]
T29 chain: GGGDYALQGGGG

[28] = target: T30, FRQRG (5-mer on peptide array)
T30 chain: FRQRG

[29] = target: T31, RFSQR (5-mer on peptide array)
T31 chain: RFSQR

[30] = target: T32, YRQSR (5-mer on peptide array)
T32 chain: YRQSR

[31] = target: T33, EYFLQ (5-mer on peptide array)
T33 chain: EYFLQ

[32] = target: T34, RYRQR (5-mer on peptide array)
T34 chain: RYRQR

[33] = target: T35, AYRQR (5-mer on peptide array)
T35 chain: AYRQR

[34] = target: T36, FRQRQ (5-mer on peptide array)
T36 chain: FRQRQ

[35] = target: T37, DWVAQ (5-mer on peptide array)
T37 chain: DWVAQ

[36] = target: T38, DWYLQ (5-mer on peptide array)
T38 chain: DWYLQ

[37] = target: T39, EYWLQ (5-mer on peptide array)
T39 chain: EYWLQ

[38] = target: T40, YQRQR (5-mer on peptide array)
T40 chain: YQRQR

B1: Streptomyces mobaraensis microbial transglutaminase (protein)
chain: DSDDRVTPPAEPLDRMPDPYRPSYGRAETVVNNYIRKWQQVYSHRDGRKQQMTEEQREWLSYGCVGVTWVNSGQYPTNRLAFASFDEDRFKNELKNGRPRSGETRAEFEGRVAKESFDEEKGFQRAREVASVMNRALENAHDESAYLDNLKKELANGNDALRNEDARSPFYSALRNTPSFKERNGGNHDPSRMKAVIYSKHFWSGQDRSSSADKRKYGDPDAFRPAPGTGLVDMSRDRNIPRSPTSPGEGFVNFDYGWFGAQTEADADKTVWTHGNHYHAPNGSLGAMHVYESKFRNWSEGYSDFDRGAYVITFIPKSWNTAPDKVKQGWP
For B1, the “5-mer peptide array signal with MTG” value [1] was “found in the mid-field of the signal distribution on the array performed with MTG”, the “5-mer peptide array signal with MTG” value [2] was “found in the mid-field of the signal distribution on the array performed with MTG” and the “5-mer peptide array signal with MTG” value [3] was “found in the mid-field of the signal distribution on the array performed with MTG”. The “5-mer peptide array, incorporation of N-(biotinyl)cadaverine” value (from here on “5-mer peptide array, incorporation”) [4] was “The 16 glutamine-donor substrates identified with MTG”, the “5-mer peptide array signal with MTG” value [5] was “found in the mid-field of the signal distribution on the array performed with MTG” and the “5-mer peptide array, incorporation” value [6] was “The 16 glutamine-donor substrates identified with MTG”. For the same protein, the “5-mer peptide array, incorporation” value [7] was “The 16 glutamine-donor substrates identified with MTG”, the “5-mer peptide array signal with MTG” value [8] was “found in the mid-field of the signal distribution on the array performed with MTG” and the “5-mer peptide array, incorporation” value [9] was “The 16 glutamine-donor substrates identified with MTG”. For the same protein, the “5-mer peptide array signal with MTG” value [10] was “found in the mid-field of the signal distribution on the array performed with MTG”, the “5-mer peptide array signal with MTG” value [11] was “found in the mid-field of the signal distribution on the array performed with MTG” and the “5-mer peptide array, incorporation” value [12] was “The 16 glutamine-donor substrates identified with MTG”. For the same protein, the “5-mer peptide array signal with MTG” value [13] was “found in the mid-field of the signal distribution on the array performed with MTG”, the KM (Z-[GGGYRYRQGGGG]) was 644 µM and the Vmax (Z-[GGGYRYRQGGGG]) was 21.5 pmol/s. For the same protein, the kcat (Z-[GGGYRYRQGGGG]) was 0.93 s⁻¹, the kcat/KM (Z-[GGGYRYRQGGGG]) was 1440 M⁻¹ s⁻¹ and the “5-mer peptide array signal with MTG” value [14] was “found in the mid-field of the signal distribution on the array performed with MTG”. For the same protein, the “5-mer peptide array, incorporation” value [15] was “The 16 glutamine-donor substrates identified with MTG”, the “5-mer peptide array signal with MTG” value [16] was “found in the mid-field of the signal distribution on the array performed with MTG” and the “5-mer peptide array, incorporation” value [17] was “The 16 glutamine-donor substrates identified with MTG”. The “5-mer peptide array signal with MTG” value [18] was “found in the mid-field of the signal distribution on the array performed with MTG”, the “5-mer peptide array signal with MTG” value [19] was “found in the mid-field of the signal distribution on the array performed with MTG” and the “5-mer peptide array signal with MTG” value [20] was “found in the mid-field of the signal distribution on the array performed with MTG”. For the same protein, the “5-mer peptide array, incorporation” value [21] was “The 16 glutamine-donor substrates identified with MTG”, the “5-mer peptide array signal with MTG” value [22] was “found in the mid-field of the signal distribution on the array performed with MTG” and the “5-mer peptide array signal with MTG” value [23] was “found in the mid-field of the signal distribution on the array performed with MTG”. For the same protein, the “5-mer peptide array, incorporation” value [24] was “The 16 glutamine-donor substrates identified with MTG”, the “5-mer peptide array, incorporation” value [25] was “The 16 glutamine-donor substrates identified with MTG” and the “5-mer peptide array, incorporation” value [26] was “The 16 glutamine-donor substrates identified with MTG”. For the same protein, the “5-mer peptide array, incorporation” value [27] was “The 16 glutamine-donor substrates identified with MTG”, the KM (Z-[GGGDYALQGGGG]) was 847 µM and the Vmax (Z-[GGGDYALQGGGG]) was 36.7 pmol/s. The kcat (Z-[GGGDYALQGGGG]) was 1.39 s⁻¹, the kcat/KM (Z-[GGGDYALQGGGG]) was 1640 M⁻¹ s⁻¹ and the “5-mer peptide array signal with MTG” value [28] was “found in the mid-field of the signal distribution on the array performed with MTG”. The “5-mer peptide array signal with MTG” value [29] was “found in the mid-field of the signal distribution on the array performed with MTG”, the “5-mer peptide array signal with MTG” value [30] was “found in the mid-field of the signal distribution on the array performed with MTG” and the “5-mer peptide array, incorporation” value [31] was “The 16 glutamine-donor substrates identified with MTG”. For the same protein, the “5-mer peptide array signal with MTG” value [32] was “found in the mid-field of the signal distribution on the array performed with MTG”, the “5-mer peptide array signal with MTG” value [33] was “found in the mid-field of the signal distribution on the array performed with MTG” and the “5-mer peptide array signal with MTG” value [34] was “found in the mid-field of the signal distribution on the array performed with MTG”. For the same protein, the “5-mer peptide array, incorporation” value [35] was “The 16 glutamine-donor substrates identified with MTG”, the “5-mer peptide array, incorporation” value [36] was “The 16 glutamine-donor substrates identified with MTG” and the “5-mer peptide array, incorporation” value [37] was “The 16 glutamine-donor substrates identified with MTG”. For the same protein, the “5-mer peptide array signal with MTG” value [38] was “found in the mid-field of the signal distribution on the array performed with MTG”.
